Measurements reported in ChEMBL document CHEMBL4382202, “1-(2-Hydroxybenzoyl)-thiosemicarbazides are promising antimicrobial agents targeting d-alanine-d-alanine ligase in bacterio” (Eur J Med Chem, 2018).

Legend:
[1] = compound: O=C(NNC(=S)Nc1ccc(Cl)c(Cl)c1)c1ccccc1O; assay: Inhibition of Enterococcus faecalis JH2-2 C-terminal 6His-tagged DdlB expressed in Escherichia coli LMG194 assessed as Vmax of ATP at 1 uM by Biomol Green reagent assay (reference value: 89.05 +/- 5.41 microM/min)
[2] = compound: O=C(NNC(=S)Nc1ccc(Cl)c(Cl)c1)c1ccccc1O; assay: Inhibition of Enterococcus faecalis JH2-2 C-terminal 6His-tagged DdlB expressed in Escherichia coli LMG194 assessed as Km of D-Ala at 1 uM by Biomol Green reagent assay (reference value: 5.62 mM)
[3] = compound: O=C(NNC(=S)Nc1ccc(Cl)c(Cl)c1)c1ccccc1O; assay: Inhibition of Enterococcus faecalis JH2-2 C-terminal 6His-tagged DdlB expressed in Escherichia coli LMG194 assessed as Km of D-Ala at 10 uM by Biomol Green reagent assay (reference value: 5.62 mM)
[4] = compound: O=C(NNC(=S)Nc1ccc(Cl)c(Cl)c1)c1ccccc1O; assay: Inhibition of Enterococcus faecalis JH2-2 C-terminal 6His-tagged DdlB expressed in Escherichia coli LMG194 assessed as Vmax of ATP at 10 uM by Biomol Green reagent assay (reference value: 89.05 +/- 5.41 microM/min)
[5] = compound: O=C(NNC(=S)Nc1ccc(Cl)c(Cl)c1)c1ccccc1O; assay: Inhibition of Enterococcus faecalis JH2-2 C-terminal 6His-tagged DdlB expressed in Escherichia coli LMG194 assessed as Vmax of D-Ala at 1 uM by Biomol Green reagent assay (reference value: 61.95 +/- 1.11 microM/min)
[6] = compound: O=C(NNC(=S)Nc1ccc(Cl)c(Cl)c1)c1ccccc1O; assay: Inhibition of Enterococcus faecalis JH2-2 C-terminal 6His-tagged DdlB expressed in Escherichia coli LMG194 assessed as Vmax of D-Ala at 10 uM by Biomol Green reagent assay (reference value: 61.95 +/- 1.11 microM/min)
[7] = compound: O=C(NNC(=S)Nc1ccc(Cl)c(Cl)c1)c1ccccc1O; assay: Inhibition of Enterococcus faecalis JH2-2 C-terminal 6His-tagged DdlB expressed in Escherichia coli LMG194 assessed as Km of ATP using 50 mM D-Ala substrate by Biomol Green reagent assay
[8] = compound: O=C(NNC(=S)Nc1ccc(Cl)c(Cl)c1)c1ccccc1O; assay: Inhibition of Enterococcus faecalis JH2-2 C-terminal 6His-tagged DdlB expressed in Escherichia coli LMG194 assessed as Km1 of D-Ala using 500 uM ATP by Biomol Green reagent assay
[9] = compound: O=C(NNC(=S)Nc1ccc(Cl)c(Cl)c1)c1ccccc1O; assay: Inhibition of Enterococcus faecalis JH2-2 C-terminal 6His-tagged DdlB expressed in Escherichia coli LMG194 assessed as Km2 of D-Ala using 500 uM ATP by Biomol Green reagent assay

B1: D-alanine--D-alanine ligase (Enterococcus faecalis (strain ATCC 700802 / V583)), Q47758 (protein)
chain: MKIILLYGGRSEEHDVSVLSAYSVLNAIYYKYYQVQLVFISKDGQWVKGPLLSERPQNKEVLHLTWAQTPEETGEFSGKRISPSEIYEEEAIVFPVLHGPNGEDGTIQGFMETINMPYVGAGVLASANAMDKIMTKYLLQTVGIPQVPFVPVLRSDWKGNPKEVFEKCEGSLIYPVFVKPANMGSSVGISKVENREELQEALEEAFRYDARAIVEQGIEAREIEVAILGNEDVRTTLPGEVVKDVAFYDYDAKYINNTIEMQIPAHVPEEVAHQAQEYAKKAYIMLDGSGLSRCDFFLTSKNELFLNELNTMPGFTDFSMYPLLWENMGLKYSDLIEELIQLALNRFK
Q: B1 was tested. Which Vmax [1] did it give?
A: Its Vmax is 72.1 µM/min.

Q: And the Km [2]?
A: The Km was 7.01 mM.

Q: And the Km [3]?
A: The Km was 9.63 mM.

Q: What about the Vmax [4] of the same protein?
A: The Vmax was 23.5 µM/min.

Q: And the Vmax [5]?
A: The Vmax was 48.6 µM/min.

Q: What about the Vmax [6] of the same protein?
A: Its Vmax is 45.1 µM/min.

Q: And the Km [7]?
A: The Km was 0.691 mM.

Q: What about the Km [8] of the same protein?
A: The Km was 0.487 mM.

Q: What about the Km [9] of the same protein?
A: The Km was 10.5 mM.
